Experimental data published in PMC3740443, “A Novel Function for the Conserved Glutamate Residue in the Walker B Motif of Replication Factor C”.
One block for each molecule: values may come before it.

Tests used:
MDCC labeled PCNA [1] = target: MDCC labeled PCNA (UniProt P15873); assay: other fluorescence titration; fluorescence intensity of 10 nM PCNA-MDCC at 470 nm, increasing RFC, 0.5 mM ATP; assay buffer 30 mM HEPES-NaOH pH 7.5, 150 mM NaCl, 10 mM MgCl2, 0.5 mM EDTA, 2 mM DTT, 2% glycerol; equilibrium, quadratic fit
MDCC labeled PCNA [2] = target: MDCC labeled PCNA (UniProt P15873); assay: other fluorescence titration; fluorescence intensity of 10 nM PCNA-MDCC at 470 nm, increasing RFC, 0.5 mM ATPγS in place of ATP; assay buffer; equilibrium, quadratic fit
AF488-labeled PCNA [3] = target: AF488-labeled PCNA (UniProt P15873)
AF488-labeled PCNA [4] = target: AF488-labeled PCNA (UniProt P15873); assay: other fluorescence titration; PCNA opening (unquenching) assay: fluorescence of 10 nM PCNA-AF488_2 at 517 nm, increasing RFC, 0.5 mM ATP; assay buffer; equilibrium, quadratic fit
AF488-labeled PCNA [5] = target: AF488-labeled PCNA (UniProt P15873); assay: other fluorescence titration; PCNA opening (unquenching) assay: fluorescence of 10 nM PCNA-AF488_2 at 517 nm, increasing RFC, 0.5 mM ATPγS in place of ATP; assay buffer; equilibrium, quadratic fit
AF488-labeled PCNA [6] = target: AF488-labeled PCNA (UniProt P15873); remark: listed apart in the source
[7] = target: PCNA (Saccharomyces cerevisiae) (UniProt P15873); assay: surface plasmon resonance; settings: cited from earlier work
Sequence of PCNA (Saccharomyces cerevisiae) (P15873 whole entry, the tested form may be a part): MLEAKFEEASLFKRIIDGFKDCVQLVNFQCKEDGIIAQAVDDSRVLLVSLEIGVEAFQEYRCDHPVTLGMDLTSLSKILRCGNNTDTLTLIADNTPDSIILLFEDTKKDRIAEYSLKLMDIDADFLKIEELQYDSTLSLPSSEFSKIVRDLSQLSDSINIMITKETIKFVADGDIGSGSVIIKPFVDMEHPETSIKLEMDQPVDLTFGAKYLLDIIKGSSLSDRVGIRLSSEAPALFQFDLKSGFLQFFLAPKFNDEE

[8] = target: RFC clamp loader (WT; Rfc1 N-terminal truncation) (Saccharomyces cerevisiae, UniProt P38630;P40348;P38629;P40339;P38251 284-861;1-353;1-340;1-323;1-354); assay: fluorescence anisotropy; 0.5 mM ATPgS; no PCNA; 20 nM p/t DNA-RhX, 0.5 mM ATPgS, varied RFC, with or without 2 uM PCNA; buffer, salt, pH and temperature not in the material (Section 3.1 text missing); settings: protein: recombinant; tags: Rfc1 N-terminal 6xHis and kinase recognition motif replacing residues 1-283; copies: 1;1;1;1;1; label: X-rhodamine (RhX) on 5' end of template; primer-template: 26 bp duplex with 34 nt 5' template overhang
[9] = target: RFC WB-EQ (Walker B Glu to Gln quadruple mutant) (Saccharomyces cerevisiae, UniProt P38630;P40348;P38629;P40339;P38251 284-861;1-353;1-340;1-323;1-354, E425Q;E141Q;E118Q;E115Q); assay: as above; settings: protein: recombinant; tags: Rfc1 N-terminal 6xHis and kinase recognition motif replacing residues 1-283; copies: 1;1;1;1;1; label: X-rhodamine (RhX) on 5' end of template; primer-template: 26 bp duplex with 34 nt 5' template overhang
[10] = target: RFC WB-EA (Walker B Glu to Ala quadruple mutant) (Saccharomyces cerevisiae, UniProt P38630;P40348;P38629;P40339;P38251 284-861;1-353;1-340;1-323;1-354, E425A;E141A;E118A;E115A); assay: as above; settings: protein: recombinant; tags: Rfc1 N-terminal 6xHis and kinase recognition motif replacing residues 1-283; copies: 1;1;1;1;1; label: X-rhodamine (RhX) on 5' end of template; primer-template: 26 bp duplex with 34 nt 5' template overhang
[11] = target: RFC WB-EA (Walker B Glu to Ala quadruple mutant);PCNA (Saccharomyces cerevisiae;Saccharomyces …, UniProt P38630;P40348;P38629;P40339;P38251;P15873 284-861;1-353;1-340;1-323;1-354;1-258, E425A;E141A;E118A;E115A|); assay: fluorescence anisotropy; 0.5 mM ATPgS; 2 uM PCNA; 20 nM p/t DNA-RhX, 0.5 mM ATPgS, varied RFC, with or without 2 uM PCNA; buffer, salt, pH and temperature not in the material (Section 3.1 text missing); settings: protein: recombinant;recombinant; tags: Rfc1 N-terminal 6xHis and kinase recognition motif replacing residues 1-283;; copies: 1;1;1;1;1;3; label: X-rhodamine (RhX) on 5' end of template; primer-template: 26 bp duplex with 34 nt 5' template overhang
[12] = target: RFC WB-EQ (Walker B Glu to Gln quadruple mutant);PCNA (Saccharomyces cerevisiae;Saccharomyces …, UniProt P38630;P40348;P38629;P40339;P38251;P15873 284-861;1-353;1-340;1-323;1-354;1-258, E425Q;E141Q;E118Q;E115Q|); assay: as above; settings: protein: recombinant;recombinant; tags: Rfc1 N-terminal 6xHis and kinase recognition motif replacing residues 1-283;; copies: 1;1;1;1;1;3; label: X-rhodamine (RhX) on 5' end of template; primer-template: 26 bp duplex with 34 nt 5' template overhang
[13] = target: RFC clamp loader (WT; Rfc1 N-terminal truncation);PCNA (Saccharomyces cerevisiae;Saccharomyces …, UniProt P38630;P40348;P38629;P40339;P38251;P15873 284-861;1-353;1-340;1-323;1-354;1-258, |); assay: as above; settings: protein: recombinant;recombinant; tags: Rfc1 N-terminal 6xHis and kinase recognition motif replacing residues 1-283;; copies: 1;1;1;1;1;3; label: X-rhodamine (RhX) on 5' end of template; primer-template: 26 bp duplex with 34 nt 5' template overhang

Kd (MDCC labeled PCNA [1]): 7.1 nM
Kd (MDCC labeled PCNA [2]): 13 nM
PCNA opening: increase of AF488 fluorescence of 10 nM PCNA-AF488 2 at saturating RFC, 0.5 mM ATPγS (AF488-labeled PCNA [3]): 1.5 fold
Kd (AF488-labeled PCNA [4]): 11 nM
Kd (AF488-labeled PCNA [5]): 5.8 nM
PCNA opening: increase of AF488 fluorescence of 10 nM PCNA-AF488 2 at saturating RFC, 0.5 mM ATP (AF488-labeled PCNA [6]): 2 fold
Molecule: wild-type replication factor C (RFC) complex, Rfc1 lacking its first 283 residues (from UniProt P38630 284-861; P40348 1-353; P38629 1-340; P40339 1-323; P38251 1-354)

Molecule: Replication factor C (from UniProt P38630)
Kd [7]: 1.3 nM

B1: p/t DNA-RhX (26/60-mer primed template) (dsDNA)
DNA 1: TTCAGGTCAGAAGGGTTCTATCTCTGTTGGCCAGAATGTCCCTTTTATTACTGGTCGTGT
DNA 2: ACACGACCAGTAATAAAAGGGACATT
modifications: 5' C6 amino linker on the 60-mer template
Kd [8]: 91 ± 28 nM
Kd [9]: 690 ± 400 nM
Kd [10]: 1060 ± 200 nM
Kd [11]: 1800 ± 700 nM
Kd [12]: 460 ± 200 nM
Kd [13]: 37 ± 13 nM
